Reference: PMC9948308, “DnaK and DnaJ proteins from Hsp70/40 family are involved in Rubisco biosynthesis in Synechocystis sp. PCC6803 and sustain the enzyme assembly in a heterologous system” (BMC Plant Biology, 2023)

T1: RbcL (Rubisco large subunit) from Synechocystis sp. PCC6803, unfolded, isolated from inclusion bodies (Synechocystis sp. PCC6803, UniProt P54205 1-470)
T1 chain: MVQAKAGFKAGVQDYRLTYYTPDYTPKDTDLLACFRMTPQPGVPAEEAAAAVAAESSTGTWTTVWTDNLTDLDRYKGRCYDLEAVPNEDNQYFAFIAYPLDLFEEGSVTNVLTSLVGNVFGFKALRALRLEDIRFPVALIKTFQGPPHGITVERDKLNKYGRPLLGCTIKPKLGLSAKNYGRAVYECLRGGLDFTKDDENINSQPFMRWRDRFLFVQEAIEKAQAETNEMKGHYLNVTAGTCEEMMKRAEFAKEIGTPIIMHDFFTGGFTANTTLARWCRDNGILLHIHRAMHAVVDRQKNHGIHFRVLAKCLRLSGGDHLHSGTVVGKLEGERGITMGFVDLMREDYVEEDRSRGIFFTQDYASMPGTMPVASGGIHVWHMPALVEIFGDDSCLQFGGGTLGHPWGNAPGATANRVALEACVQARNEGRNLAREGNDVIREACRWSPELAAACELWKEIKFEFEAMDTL

B1: RbcL (Rubisco large subunit) from Synechocystis sp. PCC6803, unfolded, isolated from inclusion bodies (natural protein, UniProt P54205 1-470, looked up)
chain: MVQAKAGFKAGVQDYRLTYYTPDYTPKDTDLLACFRMTPQPGVPAEEAAAAVAAESSTGTWTTVWTDNLTDLDRYKGRCYDLEAVPNEDNQYFAFIAYPLDLFEEGSVTNVLTSLVGNVFGFKALRALRLEDIRFPVALIKTFQGPPHGITVERDKLNKYGRPLLGCTIKPKLGLSAKNYGRAVYECLRGGLDFTKDDENINSQPFMRWRDRFLFVQEAIEKAQAETNEMKGHYLNVTAGTCEEMMKRAEFAKEIGTPIIMHDFFTGGFTANTTLARWCRDNGILLHIHRAMHAVVDRQKNHGIHFRVLAKCLRLSGGDHLHSGTVVGKLEGERGITMGFVDLMREDYVEEDRSRGIFFTQDYASMPGTMPVASGGIHVWHMPALVEIFGDDSCLQFGGGTLGHPWGNAPGATANRVALEACVQARNEGRNLAREGNDVIREACRWSPELAAACELWKEIKFEFEAMDTL
notes: Ribulose-1,5-bisphosphate carboxylase/oxygenase large subunit (RbcL), Synechocystis sp; PCC6803; used denatured/unfolded; Used as an unfolded protein diluted from GdnHCl; also called unfolded RbcL; denatured RbcL peptide; source: E. coli BL21 (DE3), purified from inclusion bodies, solubilized in 4 M GdnHCl

Key:
[1] = molecular target: T1, RbcL (Rubisco large subunit) from …; assay: MST; with ATP
[2] = molecular target: B1; assay: MST; His-tagged chaperone labelled with RED-tris-NTA (4 µM or 200 nM) and unfolded RbcL in PBS-T (0.1% Tween 20), with ATP; Monolith NT.115 pico; 1:1 binding model; conditions: both partners purified
[3] = molecular target: T2, DnaK2 together with DnaJ Sll1384 (both tested chaperones, with ATP) in the MST titration (Synechocystis sp. PCC6803, UniProt P22358 1-636; P74157 1-314); assay: as above; conditions: both partners purified
T2 construct: DnaK2, Synechocystis sp; PCC6803, as the chain of m3; DnaJ Sll1384, Synechocystis sp; PCC6803, as the chain of m2; also called DnaK + DnaJ; source: E. coli Lemo21, each purified (Ni-NTA; DnaK2 also Superdex 200), mixed

[4] = molecular target: T3, DnaK2 from Synechocystis sp. PCC6803, His-tagged (Synechocystis sp. PCC6803, UniProt P22358 1-636, RED-tris-NTA dye on the His-tag (MST only)); assay: as above; conditions: both partners purified
T3 construct: Hsp70 chaperone DnaK2, Synechocystis sp; PCC6803; gene amplified from total DNA with primers Fwdnak2 (NdeI-ATG) and Rvdnak2 (stop codon), cloned into pET16b; source: E. coli Lemo21, purified (Ni-NTA HisTrap, Superdex 200); not shown: His-tag, N-terminal, kept
T3 sequence (P22358 whole entry): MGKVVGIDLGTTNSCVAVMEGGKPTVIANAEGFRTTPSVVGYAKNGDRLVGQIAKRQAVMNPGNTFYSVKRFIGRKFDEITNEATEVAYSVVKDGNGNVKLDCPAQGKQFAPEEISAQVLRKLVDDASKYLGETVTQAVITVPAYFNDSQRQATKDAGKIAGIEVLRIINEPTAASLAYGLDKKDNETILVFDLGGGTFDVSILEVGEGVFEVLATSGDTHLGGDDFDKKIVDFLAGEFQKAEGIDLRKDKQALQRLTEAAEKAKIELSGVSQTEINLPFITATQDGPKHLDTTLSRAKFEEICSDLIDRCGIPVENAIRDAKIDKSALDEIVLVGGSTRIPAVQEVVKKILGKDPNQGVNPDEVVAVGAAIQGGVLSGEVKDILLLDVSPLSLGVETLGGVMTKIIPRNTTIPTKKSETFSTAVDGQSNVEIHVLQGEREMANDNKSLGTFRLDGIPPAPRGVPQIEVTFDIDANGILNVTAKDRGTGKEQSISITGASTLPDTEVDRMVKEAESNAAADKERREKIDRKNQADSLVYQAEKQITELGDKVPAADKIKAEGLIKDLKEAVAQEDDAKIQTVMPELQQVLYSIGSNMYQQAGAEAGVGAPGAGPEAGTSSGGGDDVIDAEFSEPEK

T2 sequence (P22358 whole entry, one chain of several): as the sequence (P22358 whole entry) above

Binder | Kd [1] | Kd [2] | Kd [3] | Kd [4]
DnaJ Sll1384 from Synechocystis sp. PCC6803, His-tagged (natural protein, UniProt P74157 1-314, looked up, RED-tris-NTA dye on the His-tag (MST only), DnaJ homolog Sll1384 (J domain plus C-terminal TPR domain), Synechocystis sp; PCC6803; gene amplified from total DNA with primers Fwsll1384 (NdeI-ATG) and Rvsll1384 (stop codon), cloned into pET16b; also called DnaJ Sll384; source: E. coli Lemo21, purified (Ni-NTA HisTrap, dialysis); not shown: His-tag, N-terminal, kept) MSSFPIKQGLFNYDVVDHHAILGCPLDATPEEIRKSYLKIAFQLHPDTSKATNEEEQALAAKLFSKFVNPAYEVLSRENDRKEHLLIIQQTVSNLASIGQPSFSSAESQKLQGAKQNLELVYRKVVTPLSKGLYEDFKTVFRKIAQVSEYNLIFLMVKGENASARPVFQTIASSKETVPPVVSGRSPQGPTPTPPINNPPAEELSPFEKSLRRAQENFDRRQYEKAIAELKSALKTDPKNAQAHCLLGMAYLKNNMMTMAKVHIGSAVKLDPNDPKVMAAKKELAKHTSSGSSQEGAKSSQGGFLGGLFGGKKK | 1.36 nM | 1360 ± 2760 nM |  | 
B1 |  |  | 31.1 ± 1.17 nM | 6050 ± 3410 nM
